From article PMC2826812 (Biochemistry, 2010)

What was measured:
[1] = target: rabbit skeletal muscle F-actin (rabbit) (UniProt P68135)
[2] = target: acto-Myo1c^1IQ (pyr.actin-Myo1c^1IQ) (Rattus norvegicus, UniProt Q63355); format: binding
[3] = target: rabbit skeletal muscle F-actin (rabbit) (UniProt P68135); remark: listed apart in the source

Molecule: Myo1c^SAH-G (from UniProt Q63355 1-762; D3ZJP6 805-843) (domain or fragment)
- in vitro motility: speed of actin filaments over surface-held myosin [1]: 29 nm/s

Molecule: Nc1ncnc2c1ncn2[C@@H]1O[C@H](COP(=O)(O)OP(=O)(O)O)[C@@H](O)[C@H]1O [ADP]
- Kd [2]: 1740 nM

Molecule: Myo1c^1IQ-G (from UniProt Q63355 1-725) (domain or fragment)
- Km for actin of the steady-state actin-activated Mg2+-ATPase, pCa 4.6 [3]: 0.28 μM
